This assay has as its target T1, nephrin (human, UniProt O60500 23-1241).
T1 construct: whole, on cells; Endogenous protein in fixed podocytes; also called NPHS1
T1 sequence (looked up): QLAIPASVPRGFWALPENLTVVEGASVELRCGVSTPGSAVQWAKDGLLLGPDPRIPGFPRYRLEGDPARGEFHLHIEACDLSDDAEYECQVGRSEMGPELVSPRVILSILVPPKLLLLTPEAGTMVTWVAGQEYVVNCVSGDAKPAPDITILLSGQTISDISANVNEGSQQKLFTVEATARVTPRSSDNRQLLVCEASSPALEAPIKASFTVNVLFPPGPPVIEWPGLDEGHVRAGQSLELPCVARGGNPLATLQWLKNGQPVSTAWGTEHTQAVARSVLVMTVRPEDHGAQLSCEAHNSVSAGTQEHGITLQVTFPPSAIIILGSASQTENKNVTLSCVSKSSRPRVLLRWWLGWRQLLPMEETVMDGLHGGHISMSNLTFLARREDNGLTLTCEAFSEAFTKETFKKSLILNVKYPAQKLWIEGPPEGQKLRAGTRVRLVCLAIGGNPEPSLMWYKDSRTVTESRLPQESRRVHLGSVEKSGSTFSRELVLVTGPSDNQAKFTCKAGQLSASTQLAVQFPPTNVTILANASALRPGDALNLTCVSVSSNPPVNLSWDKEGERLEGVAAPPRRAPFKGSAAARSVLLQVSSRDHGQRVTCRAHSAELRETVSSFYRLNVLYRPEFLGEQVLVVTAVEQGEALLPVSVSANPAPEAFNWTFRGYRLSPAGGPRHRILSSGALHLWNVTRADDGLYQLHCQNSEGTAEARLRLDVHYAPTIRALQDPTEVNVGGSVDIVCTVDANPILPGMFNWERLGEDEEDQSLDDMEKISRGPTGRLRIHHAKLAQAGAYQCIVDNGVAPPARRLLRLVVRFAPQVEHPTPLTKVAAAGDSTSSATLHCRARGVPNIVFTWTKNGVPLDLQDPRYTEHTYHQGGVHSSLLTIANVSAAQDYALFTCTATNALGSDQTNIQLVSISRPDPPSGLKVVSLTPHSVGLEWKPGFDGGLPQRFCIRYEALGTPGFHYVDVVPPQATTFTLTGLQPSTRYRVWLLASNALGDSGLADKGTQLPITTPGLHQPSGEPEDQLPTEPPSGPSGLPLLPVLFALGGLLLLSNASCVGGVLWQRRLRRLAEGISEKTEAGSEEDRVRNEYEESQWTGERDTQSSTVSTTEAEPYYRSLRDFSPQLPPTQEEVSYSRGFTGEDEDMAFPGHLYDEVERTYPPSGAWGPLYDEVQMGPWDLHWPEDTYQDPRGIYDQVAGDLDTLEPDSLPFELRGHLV
Briefly: only co-localisation by immunofluorescence in immortalized human podocytes (FIG. 3); no direct binding assay. The protocol:
Endogenous anillin protein staining is shown in red. Co-immunolabeling for anti-CD2AP (A) anti-RhoA (B), anti-nephrin (C) anti-INF2 (D) and anti-F-actin are shown in green. Cell nuclei are stained with DAPI (blue). Anillin is strongly expressed in both the nucleus and cytoplasm and co-localizes with CD2AP, RhoA, nephrin, INF2, F-actin and TRPC6, in cultured immortalized human podocytes. IgG served as the control antibody (0).
Immortalized human podocytes were cultured on collagen I-coated coverslips (BD Biosciences) and treated as indicated. Cells were then fixed with 4% paraformaldehyde in PBS (Sigma). Podocytes were then washed twice with ice cold PBS prior to permeabilization with 0.1% Triton X-100 in PBS. Cells were then washed with ice cold PBS twice and blocked with buffer containing 5% goat serum prior to incubation with rabbit polyclonal Anillin antibody (Bethyl Laboratories, Montgomery, Tex.), mouse monoclonal Rho A antibody (Abeam), mouse monoclonal nephrin antibody (Abgent, Inc, San Diego, Calif.), and mouse polyclonal CD2AP antibody (Santa Cruz Biotechnologies, Santa Cruz, Calif.) overnight at 4° C. Cells were then washed with ice cold PBS and secondary Alexa Flora 488 antibody was applied (invitrogen) at a concentration of 1:1,000 for 1 hour at room temperature. […]

B1: anillin (ANLN), wild-type, endogenous in immortalized human podocytes (other)
chain: MDPFTEKLLERTRARRENLQRKMAERPTAAPRSMTHAKRARQPLSEASNQQPLSGGEEKSCTKPSPSKKRCSDNTEVEVSNLENKQPVESTSAKSCSPSPVSPQVQPQAADTISDSVAVPASLLGMRRGLNSRLEATAASSVKTRMQKLAEQRRRWDNDDMTDDIPESSLFSPMPSEEKAASPPRPLLSNASATPVGRRGRLANLAATICSWEDDVNHSFAKQNSVQEQPGTACLSKFSSASGASARINSSSVKQEATFCSQRDGDASLNKALSSSADDASLVNASISSSVKATSPVKSTTSITDAKSCEGQNPELLPKTPISPLKTGVSKPIVKSTLSQTVPSKGELSREICLQSQSKDKSTTPGGTGIKPFLERFGERCQEHSKESPARSTPHRTPIITPNTKAIQERLFKQDTSSSTTHLAQQLKQERQKELACLRGRFDKGNIWSAEKGGNSKSKQLETKQETHCQSTPLKKHQGVSKTQSLPVTEKVTENQIPAKNSSTEPKGFTECEMTKSSPLKITLFLEEDKSLKVTSDPKVEQKIEVIREIEMSVDDDDINSSKVINDLFSDVLEEGELDMEKSQEEMDQALAESSEEQEDALNISSMSLLAPLAQTVGVVSPESLVSTPRLELKDTSRSDESPKPGKFQRTRVPRAESGDSLGSEDRDLLYSIDAYRSQRFKETERPSIKQVIVRKEDVTSKLDEKNNAFPCQVNIKQKMQELNNEINMQQTVIYQASQALNCCVDEEHGKGSLEEAEAERLLLIATGKRTLLIDELNKLKNEGPQRKNKASPQSEFMPSKGSVTLSEIRLPLKADFVCSTVQKPDAANYYYLIILKAGAENMVATPLASTSNSLNGDALTFTTTFTLQDVSNDFEINIEVYSLVQKKDPSGLDKKKKTSKSKAITPKRLLTSITTKSNIHSSVMASPGGLSAVRTSNFALVGSYTLSLSSVGNTKFVLDKVPFLSSLEGHIYLKIKCQVNSSVEERGFLTIFEDVSGFGAWHRRWCVLSGNCISYWTYPDDEKRKNPIGRINLANCTSRQIEPANREFCARRNTFELITVRPQREDDRETLVSQCRDTLCVTKNWLSADTKEERDLWMQKLNQVLVDIRLWQPDACYKPIGKP
notes: Endogenous intracellular protein stained in fixed, permeabilised immortalized human podocytes
Turning to B1, the binding result is “binds”.

For the origin of these results see patent publication US20140106352A1 (DUKE UNIVERSITY, published 2014).
